Laboratory results reported in US20260085097A1 (TEXAS A AND M UNIVERSITY SYSTEM, published 2026).
Like-named read-outs stand apart in the source and are kept apart here.

What was measured:
[1] = molecular target: T1, Shiga toxin 2a (Stx2a) holotoxin (Escherichia coli (Shiga …, UniProt P09385 23-319; P09386 20-89)
T1 sequence (P09385 23-319 limits assumed, one chain of several): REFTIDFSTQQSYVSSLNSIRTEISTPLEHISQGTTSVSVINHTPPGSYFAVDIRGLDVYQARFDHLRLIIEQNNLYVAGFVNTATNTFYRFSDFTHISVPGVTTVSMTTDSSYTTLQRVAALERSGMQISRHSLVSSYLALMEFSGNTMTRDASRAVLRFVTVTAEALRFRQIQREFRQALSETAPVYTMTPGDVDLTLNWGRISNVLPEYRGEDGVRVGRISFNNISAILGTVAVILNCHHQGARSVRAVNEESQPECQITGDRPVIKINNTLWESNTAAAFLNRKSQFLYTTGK

[2] = molecular target: T1, Shiga toxin 2a (Stx2a) holotoxin; assay: cell-based or functional assay
[3] = molecular target: T2, Stx2a-A1 fragment with a C-terminus 6xHis tag (Escherichia coli (Shiga …, UniProt P09385 23-272)); assay: ELISA at pH 6.0, plate coated with 4 ug/mL Stx2a-A1
[4] = molecular target: T2, Stx2a-A1 fragment with a C-terminus …; assay: ELISA at pH 7.4, plate coated with 4 ug/mL Stx2a-A1
[5] = molecular target: T1, Shiga toxin 2a (Stx2a) holotoxin; assay: BLI (BLItz), biotinylated Stx2a holotoxin on streptavidin sensor, apparent KD
[6] = molecular target: T1, Shiga toxin 2a (Stx2a) holotoxin; assay: screen of E. coli lysates for Stx2a binding after off-rate selection
[7] = molecular target: T1, Shiga toxin 2a (Stx2a) holotoxin; assay: ELISA, plate coated with full-length Stx2a
[8] = molecular target: T1, Shiga toxin 2a (Stx2a) holotoxin; remark: listed apart in the source
[9] = molecular target: T1, Shiga toxin 2a (Stx2a) holotoxin; remark: listed apart in the source
[10] = molecular target: T1, Shiga toxin 2a (Stx2a) holotoxin; assay: BLI (BLItz), biotinylated Stx2a holotoxin on streptavidin sensor
[11] = molecular target: Shiga toxin 2a (Stx2a) holotoxin (Escherichia coli (Shiga …, UniProt P09385 23-319; P09386 20-89); assay: cell-based or functional assay; remark: listed apart in the source
Target sequence in this assay (P09385 23-319, chain 1 of 2): as the sequence (P09385 23-319 limits assumed, one chain of several) above
Target sequence in this assay (P09386 20-89, tags left off, chain 2 of 2): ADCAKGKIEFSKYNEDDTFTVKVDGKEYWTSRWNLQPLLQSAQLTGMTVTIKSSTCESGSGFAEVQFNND

[12] = molecular target: T1, Shiga toxin 2a (Stx2a) holotoxin; remark: listed apart in the source

T2 sequence (P09385 23-272, tags left off): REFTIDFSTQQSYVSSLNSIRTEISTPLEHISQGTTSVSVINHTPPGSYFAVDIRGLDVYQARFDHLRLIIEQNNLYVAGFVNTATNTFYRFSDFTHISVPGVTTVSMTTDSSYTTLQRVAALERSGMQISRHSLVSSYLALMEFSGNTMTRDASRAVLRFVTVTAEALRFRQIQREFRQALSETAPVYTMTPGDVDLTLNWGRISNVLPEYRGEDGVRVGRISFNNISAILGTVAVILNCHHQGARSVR

B1: DARPin HT (designed binder)
chain: MGSSHHHHHHSSGLVPRGSHMEQKLISEEDLGSDLGKKLLEAARAGQDDEVRILMANGADVNAGDPFGFTPLHLAAMFGHLEIVEVLLKNGADVNAHDEYGFTPLHLAAVVGHLEIVEVLLKNGADVNACDNQGGTPLHLAAHTGHLEIVEVLLKHGADVNAQDKFGKTAFDISIDNGNEDLAEILQSSS
EC50 (read off the curve) [1]: ~1 nM | EC50 of Stx2a neutralization, Vero E6 toxin challenge assay [2]: 1900 nM | EC50 [3]: 1.2 nM | EC50 [4]: 1.2 nM | Kd [5]: 409 nM

B2: DARPin Off-rate #26 (designed binder)
chain: MGSSHHHHHHSSGLVPRGSHMEQKLISEEDLGSDLGKKLLEAARAGQDDEVRILMANGADVNAGDPFGFTPLHLAAMFGHLEIVEVLLKNGADVNAHEEYGFTPLHLAAVVGHLEIVEVLLKNGADVNACDNQGGTPLHLASHTGHLEIVEVLLKHGADVNAQDKFGKTAFDISIDTGNEDLAEILQSSS
binding result [6]: binds

B3: DARPin RI (designed binder)
chain: MGSSHHHHHHSSGLVPRGSHMEQKLISEEDLGSDLGKKLLEAARAGQDDEVRILMANGADVNAGDPFGFTPLHLAAMFGHLEIVEVLLKNGADVNAHDEYGFTPLHLAAVVGHLEIVEVLLKNGADVNACDNQGGTPLHLAARIGHLEIVEVLLKHGADVNAQDKFGKTAFDISIDNGNEDLAEILQSSS
EC50 (read off the curve) [1]: ~1 nM | fold improved toxin neutralization activity in the Vero E6 toxin challenge assay [2]: ~4 fold | fold improved toxin-binding ability in ELISA (against parent 10B) [7]: ~8 fold

B4: DARPin 10B (designed binder)
chain: MGSSHHHHHHSSGLVPRGSHMEQKLISEEDLGSDLGKKLLEAARAGQDDEVRILMANGADVNAGDPFGFTPLHLAAMFGHLEIVEVLLKNGADVNAHDEYGFTPLHLAAVVGHLEIVEVLLKNGADVNACDNQGGTPLHLAAVDGHLEIVEVLLKHGADVNAQDKFGKTAFDISIDNGNEDLAEILQSSS
EC50 (read off the curve) [8]: ~4 nM | Kd [9]: 3540 nM | EC50 of Stx2a neutralization, Vero E6 toxin challenge assay [2]: 2700 nM | EC50 of Stx2a neutralization, Vero E6 toxin challenge assay (cell viability) [2]: > 1000 nM | EC50 [3]: 3.8 nM | EC50 [4]: 3.7 nM | Kd [5]: 3450 nM | Kd [10]: 3540 nM

B5: DARPin Off-rate #28 (designed binder)
chain: MGSSHHHHHHSSGLVPRGSHMEQKLISEEDLGSDLGKKLLEAARAGQDDEVRILMANGADVNAGDPFGFTPLHLAAMYGHLEIVEVLLKNGADVNAHEEYGFTPLHLAAVVGHLEIVEVLLKNGADVNACDNQGGTPLHLAARIGHLEIVEVLLKHGADVNAQDKFGKTAFDISIDNGNEDLAEILQSSS
binding result [6]: binds

B6: DARPin Off-rate #27 (designed binder)
chain: MGSSHHHHHHSSGLVPRGSHMEQKLISEEDLGSDLGKKLLEAARAGQDDEVRFLMANGADVNAGDPFGFTPLHLAAMFGHLEIVEVLLKNGADENAHEEYGFTPLHLAAVVGHLEIVEVLLKNGADVNACDNQGGTPLHLAAHTGHLEIVEVLLKHGADVNAQDKFGKTAFDISIDNGNEDLAEILQSSS
binding result [6]: binds

B7: DARPin #16 (designed binder)
chain: DLGKKLLEAARAGQDDEVRILMANGADVNAADPAGWTPLHLAACYGHLEIVGVLLKNGADVNALDWGGWTPLHLAAVIGHLEIVGVLLKHGADVNATDLSGWTPLHLAAFRGHLEIVEVLLKHGADVNAQDKFGKTAFDISIDNGNEDLAEILQSSS
EC50 of Stx2a neutralization, Vero E6 toxin challenge assay (cell viability) [11]: > 1000 nM

B8: DARPin #3 (designed binder)
chain: MGSSHHHHHHSSGLVPRGSHMEQKLISEEDLGSDLGKKLLEAARAGQDDEVRILMANGADVNACDSNGRTPLHLAAVRGHLEIVEVLLKNGADVNAWDVIGKTPLHLAADGGHLEIVEVLLKNGADVNAWDLIGRTPLHLAALDGHLEIVEVLLEHGADVNAYDRPGHTPLHLAARRGHLEIVEVLLKYGADVNAQDKFGKTAFDISIDNGNEDLAEILQSSS
koff [12]: 0.0438 s⁻¹ | EC50 of Stx2a neutralization, Vero E6 toxin challenge assay (cell viability) [2]: > 1000 nM | Kd [5]: 8.8 nM | Kd [10]: 8.83 nM
